Test results: publication PMC12683673 (RSC Chemical Biology, 2025)

B1: ClpX^ΔN unfoldase from Thermus thermophilus (lacks the first 52 residues) (domain or fragment)
chain: not shown
B2: ClpP protease from Thermus thermophilus (tetradecameric ClpP14, 300 kDa) (enzyme)
chain: not shown

Assays:
[1] = target: the molecule itself; test: negative-stain electron microscopy
SEC = target: the molecule itself; test: SEC

Protein | stoichiometry N [1] | stoichiometry N (SEC)
B1 | 6 | 
B2 |  | 14
